Measurements taken from article PMC4421749.

Molecular target: microtubules assembled from bovine brain tubulin (bovine) (UniProt Q6B856)
Assay: co-sedimentation; 0.5 μM 4R-tau with increasing taxol-stabilized microtubules, 30 min at RT, BRB80-K (BRB80 + 50 mM KCl); 230,000 x g 15 min; tau in the pellet by densitometry of Coomassie gels; hyperbolic fit; apparent Kd

Kd: 0.28 µM
Substance: 4R-tau (1N4R-tau), recombinant human tau containing four microtubule-binding sites (from UniProt P10636-7 1-412) (natural protein)
